Data from patent US20170267970A1, “Three-Dimensional Hydrogels that Support Growth of Physiologically Relevant Tissue and Methods of Use Thereof” (Whitehead Institute for Biomedical Research, priority 2016, published 2017).
“Also recorded” adds a separate entry of the source.

Tests used:
[1] = system: breast cancer samples cultured in 3D culture; test: Tamoxifen sensitivity of breast cancer samples in 3D culture (CellTiter-Glo on intact gels); format: cell-based, human; conditions: 48 hours of treatment; ER-positive cancer cells
Experimental: (§1) Shown are cell counts for each dose of drug following 48 hours of treatment. Cells were counted using CellTiter-Glo assay performed on intact gels. […] Both cultures were grown in hydrogel culture for nine days with 40 ng/mL nerve growth factor.

[2] = system: mouse dorsal root ganglia neurons; test: Growth of dorsal root ganglia neurons in hydrogels with nerve growth factor; format: cell-based; conditions: 40 ng/mL NGF; nine days
Experimental: as §1
Mouse dorsal root ganglia were collected and either dissociated into single cells (FIG. 22A) or kept intact (FIG. 22B), and seeded into hydrogels containing no growth factors aside from 40 ng/mL nerve growth factor (NGF). They were cultured in 50% DMEM, 50% F12 growth media supplemented with 10% heat-inactivated fetal bovine serum and 40 ng/mL NGF. The cultures were grown for nine days, at which point they were fixed and stained for the expression of the sodium channel NaV1.7 (a marker of nociceptive neurons) and the DNA dye DAPI.

[3] = system: breast tissues cultured in hydrogel scaffolds; test: Morphological response to hormones of breast tissues cultured in hydrogel scaffolds; format: cell-based, human
Source text: FIG. 1A is a schematic representation of hydrogel assembly. FIG. 1B depicts representative bright-field images of tissue growth after ten days in Matrigel, polymerized collagen or the presently disclosed three-dimensional hydrogels (e.g., in the absence of BPE), alongside carmine stained mammary tissue sections from independent reduction mammoplasty patients. […] FIG. 1E depicts schematic and representative images showing the effect of pituitary hormones (0.4% bovine pituitary extract [BPE]) and 1 μg/mL recombinant human prolactin administration on the development of tissue structures grown in the presently disclosed three-dimensional hydrogels. BPE was added at seeding (D0) and prolactin at two weeks (N=4, 7 and 14, 1 resp). Bottom left images show representative architecture prior to the administration of prolactin. […] Error bars represent SEM.
Distance of the section from the surface of the structure is indicated. Scale bars are 200 μm.
We next assessed if breast tissues cultured in hydrogel scaffolds respond to steroid, pituitary, or lactogenic hormones, which are known to stimulate the development of mammary epithelial tissue in vivo.

## CC/C(=C(\c1ccccc1)c1ccc(OCCN(C)C)cc1)c1ccccc1 [tamoxifen]
[1]
  sensitivity / responsiveness to tamoxifen (cell counts): consistently responsive; also recorded: exhibit sensitivity

## nerve growth factor: nerve growth factor, 40 ng/mL in hydrogel and medium
[2]
  neuron survival and growth of axons and dendrites: survive and grow new axons and dendrites

B1: prolactin: lactogenic hormone; 1 μg/mL recombinant human prolactin (protein, UniProt P01236 29-227, looked up)
Prolactin: LPICPGGAARCQVTLRDLFDRAVVLSHYIHNLSSEMFSEFDKRYTHGRGFITKAINSCHTSSLATPEDKEQAQQMNQKDFLSLIVSILRSWNEPLYHLVTEVRGMQEAPEAILSKAVEIEEQTKRLLEGMELIVSQVHPETKENEIYPVWSGLPSLQMADEESRLSAYYNLLHCLRRDSHKIDNYLKLLKCRIIHNNNC
[3]; 1 μg/mL recombinant human prolactin added at two weeks, day 21
  increase in lobular volume: 4 fold
[3]; prolactin 1 μg/mL
  lipid droplets / lipid content (H&E, oil red O staining): formation of large lipid droplets; also recorded: lipid rich; also recorded: Lipid droplets can be seen
[3]; prolactin after 2 weeks of estrogen and progesterone
  formation of milk-like opaque substance in lumens: promotes the formation of an opaque substance that fills the luminal space of the structures
